Measured values from patent publication US20100172925A1, “HLA-A2-RESTRICTED T-CELL EPITOPES OF THE RESPIRATORY SYNCYTIAL VIRUS FUSION PROTEIN AS PEPTIDE-BASED VACCINES” (priority 2009, published 2010).
Entries after “also recorded” stand apart in the source; their conditions may differ. No end group written: not given here.

Tests used:
[1] = tested on: lungs of peptide-immunized mice infected with RSV; test: Pathological staining of CD4+ and CD8+ T cells in lungs of peptide-immunized, RSV-infected mice; assay type: in vivo, mouse
From the text: A recent study has generally questioned the role of CTLs in the pathogenesis of human RSV infection. Very few CD8^+ T cells in the lung infiltrates were found in human infants infected with lethal RSV. Additionally, there was little evidence for T cell cytokines in nasal secretion and few CTL can be recovered by BAL from the infants with bronchiolitis.

HLA-A*0201 molecules = molecular target: T1, HLA-A*0201 molecules (Homo sapiens, UniProt P04439, D140Y/D185E/D98H/E176V/E277Q/G131W/G231S/I119V/I121R/I166T/I218V/L300P/L318F/N151K/N90K/P208A/P217A/Q86G/Q94H/R138H/R169H/T345S); test: T2 cell-stabilization assay (T2-based HLA-A*0201 binding); conditions: T2 cells, peptide 50 μg/mL; for binding affinity higher than the baseline: moderate binding affinity; for mean of fluorescence intensity (MFI) ratio, binding to HLA-A*0201: ratio to negative control (MFI=1)
T1 construct: T2 cell (which expressing HLA-A*0201)-stabilization assay; endogenous in cells; host or cells: T2 cells

[2] = tested on: eosinophile count in peripheral blood or lung; assay type: in vivo, mouse; conditions: peptide-immunized mice challenged with RSV; data not shown

| Sequence | infiltrated CD4+ and CD8+ T cells in the lungs [1] | binding affinity higher than the baseline (HLA-A*0201 molecules) [%] | mean of fluorescence intensity (MFI) ratio, binding to HLA-A*0201 (HLA-A*0201 molecules) | also measured |
| --- | --- | --- | --- | --- |
| AITTILAAV [compound 3] | few infiltrated CD4^+ and CD8^+ T cells |  |  |  |
| ALLSTNKAV (F193-201) [compound 8, 9-mer synthetic peptide from the F protein of RSV-B1 strain] |  | 10 |  |  |
| FLLGVGSAI (F163-171) [compound 6, 9-mer synthetic peptide from the F protein of RSV-B1 strain] |  | 10 |  |  |
| KIMTSKTDV [compound 17] | few infiltrated CD4^+ and CD8^+ T cells |  |  |  |
| KLMSNNVQI (F295-303) [compound 15, 9-mer synthetic peptide from the F protein of RSV-B1 strain] |  |  | about 1.5 |  |
| LLSLIAVGL (F561-569) [compound 24, 9-mer synthetic peptide from the F protein of RSV-B1 strain] |  |  | about 1.5 |  |
| LLSTNKAVV (F194-202) [compound 9, 9-mer synthetic peptide from the F protein of RSV-B1 strain] |  |  | about 1.5 |  |
| LMSNNVQIV (F296-304) [compound 16, 9-mer synthetic peptide from the F protein of RSV-B1 strain] |  |  | about 1.5 |  |
| SLIAVGLLL (F563-571) [compound 25, 9-mer synthetic peptide from the F protein of RSV-B1 strain] |  | 10 |  |  |
| SVGNTLYYV (F474-482) [compound 18, 9-mer synthetic peptide from the F protein of RSV-B1 strain] |  | 10 |  |  |
| TLLLWVLLL (F5-13) [compound 1, 9-mer synthetic peptide from the F protein of RSV-B1 strain] |  | 10 |  |  |
| VILLSLIAV [compound 23] | more infiltrated CD4^+ and CD8^+ T cells; also recorded: severe CD8^+ lymphocytic inflammation |  |  | eosinophilia (eosinophile count in peripheral blood or lung) [2]: not eosinophilia |
| YMLTNSELL [compound 14] | few infiltrated CD4^+ and CD8^+ T cells |  |  | eosinophilia (eosinophile count in peripheral blood or lung) [2]: absence of pulmonary eosinophilia |
